± gives the standard deviation of the averaged measurements.
Assay: total protein half-life in vivo (active degradation + dilution); higher = more stable protein
[1] = E. coli NCM3722 delta-clpP delta-lon delta-hslV, growth: N-lim chemostat, doubling time 6 h
[2] = E. coli NCM3722 delta-clpP, growth: N-lim chemostat, doubling time 6 h
[3] = E. coli NCM3722 delta-hslV, growth: N-lim chemostat, doubling time 6 h
[4] = E. coli NCM3722 delta-lon, growth: N-lim chemostat, doubling time 6 h
[5] = E. coli NCM3722 delta-smpB, growth: N-lim chemostat, doubling time 6 h
[6] = wild type E. coli NCM3722, growth: C-lim chemostat, doubling time 3 h
[7] = wild type E. coli NCM3722, growth: C-lim chemostat, doubling time 6 h
[8] = wild type E. coli NCM3722, growth: C-lim chemostat, doubling time 12 h
[9] = wild type E. coli NCM3722, growth: N-lim chemostat, doubling time 6 h
[10] = wild type E. coli NCM3722, growth: N-lim chemostat, doubling time 12 h
[11] = wild type E. coli NCM3722, growth: P-lim chemostat, doubling time 6 h
[12] = wild type E. coli NCM3722, growth: P-lim chemostat, doubling time 12 h

| Sequence | total protein half-life in vivo [1] | total protein half-life in vivo [2] | total protein half-life in vivo [3] | total protein half-life in vivo [4] | total protein half-life in vivo [5] | total protein half-life in vivo [6] | total protein half-life in vivo [7] | total protein half-life in vivo [8] | total protein half-life in vivo [9] | total protein half-life in vivo [10] | total protein half-life in vivo [11] | total protein half-life in vivo [12] |
| --- | --- | --- | --- | --- | --- | --- | --- | --- | --- | --- | --- | --- |
| MSGGLVTAAYIVAAILFIFSLAGLSKHETSRQGNNFGIAGMAIALIATIFGPDTGNVGWILLAMVIGGAIGIRLAKKVEMTEMPELVAILHSFVGLAAVLVGFNSYLHHDAGMAPILVNIHLTEVFLGIFIGAVTFTGSVVAFGKLCGKISSKPLMLPNRHKMNLAALVVSFLLLIVFVRTDSVGLQVLALLIMTAIALVFGWHLVASIGGADMPVVVSMLNSYSGWAAAAAGFMLSNDLLIVTGALVGSSGAILSYIMCKAMNRSFISVIAGGFGTDGSSTGDDQEVGEHREITAEETAELLKNSHSVIITPGYGMAVAQAQYPVAEITEKLRARGINVRFGIHPVAGRLPGHMNVLLAEAKVPYDIVLEMDEINDDFADTDTVLVIGANDTVNPAAQDDPKSPIAGMPVLEVWKAQNVIVFKRSMNTGYAGVQNPLFFKENTHMLFGDAKASVDAILKAL [P0AB67] | 6.55 ± 0.55 h | 6.742 ± 0.019 h | 6.72 ± 1.3 h | 5.57 ± 0.22 h | 6.05 ± 0.38 h | 3.36 ± 0.3 h | 6.08 ± 1.6 h | 14.8 ± 0.91 h | 6.02 ± 0.96 h | 11.7 ± 0.14 h | 6.5 ± 0.41 h | 11.6 ± 1.1 h |
| MNKTTEYIDAMPIAASEKAALPKTDIRAVHQALDAEHRTWAREDDSPQGSVKARLEQAWPDSLADGQLIKDDEGRDQLKAMPEAKRSSMFPDPWRTNPVGRFWDRLRGRDVTPRYLARLTKEEQESEQKWRTVGTIRRYILLILTLAQTVVATWYMKTILPYQGWALINPMDMVGQDLWVSFMQLLPYMLQTGILILFAVLFCWVSAGFWTALMGFLQLLIGRDKYSISASTVGDEPLNPEHRTALIMPICNEDVNRVFAGLRATWESVKATGNAKHFDVYILSDSYNPDICVAEQKAWMELIAEVGGEGQIFYRRRRRRVKRKSGNIDDFCRRWGSQYSYMVVLDADSVMTGDCLCGLVRLMEANPNAGIIQSSPKASGMDTLYARCQQFATRVYGPLFTAGLHFWQLGESHYWGHNAIIRVKPFIEHCALAPLPGEGSFAGSILSHDFVEAALMRRAGWGVWIAYDLPGSYEELPPNLLDELKRDRRWCHGNLMNFRLFLVKGMHPVHRAVFLTGVMSYLSAPLWFMFLALSTALQVVHALTEPQYFLQPRQLFPVWPQWRPELAIALFASTMVLLFLPKLLSILLIWCKGTKEYGGFWRVTLSLLLEVLFSVLLAPVRMLFHTVFVVSAFLGWEVVWNSPQRDDDSTSWGEAFKRHGSQLLLGLVWAVGMAWLDLRFLFWLAPIVFSLILSPFVSVISSRATVGLRTKRWKLFLIPEEYSPPQVLVDTDRFLEMNRQRSLDDGFMHAVFNPSFNALATAMATARHRASKVLEIARDRHVEQALNETPEKLNRDRRLVLLSDPVTMARLHFRVWNSPERYSSWVSYYEGIKLNPLALRKPDAASQ | 6.7 ± 0.34 h | 6.54 ± 0.33 h | 6.46 ± 0.79 h | 6.41 ± 0.39 h | 5.99 ± 0.24 h | 3.26 ± 0.39 h | 6.45 ± 0.66 h |  | 6.22 ± 0.42 h | 13.4 ± 0.32 h | 6.3 ± 0.32 h | 13.3 ± 1.8 h |
| MQNRLTIKDIARLSGVGKSTVSRVLNNESGVSQLTRERVEAVMNQHGFSPSRSARAMRGQSDKVVAIIVTRLDSLSENLAVQTMLPAFYEQGYDPIMMESQFSPQLVAEHLGVLKRRNIDGVVLFGFTGITEEMLAHWQSSLVLLARDAKGFASVCYDDEGAIKILMQRLYDQGHRNISYLGVPHSDVTTGKRRHEAYLAFCKAHKLHPVAALPGLAMKQGYENVAKVITPETTALLCATDTLALGASKYLQEQRIDTLQLASVGNTPLMKFLHPEIVTVDPGYAEAGRQAACQLIAQVTGRSEPQQIIIPATLS | 5.44 ± 0.36 h | 5.57 h | 5.41 ± 1 h | 5.53 ± 0.32 h | 4.96 ± 0.47 h | 2.888 ± 0.0064 h | 5.6 ± 0.49 h | 12.4 ± 2.4 h | 5.0404 ± 0.0037 h | 10.5 ± 1.1 h | 4.72 ± 0.12 h | 10.2 ± 1.8 h |
| MTEAMKITLSTQPADARWGEKATYSINNDGITLHLNGADDLGLIQRAARKIDGLGIKHVQLSGEGWDADRCWAFWQGYKAPKGTRKVVWPDLDDAQRQELDNRLMIIDWVRDTINAPAEELGPSQLAQRAVDLISNVAGDRVTYRITKGEDLREQGYMGLHTVGRGSERSPVLLALDYNPTGDKEAPVYACLVGKGITFDSGGYSIKQTAFMDSMKSDMGGAATVTGALAFAITRGLNKRVKLFLCCADNLISGNAFKLGDIITYRNGKKVEVMNTDAEGRLVLADGLIDASAQKPEMIIDAATLTGAAKTALGNDYHALFSFDDALAGRLLASAAQENEPFWRLPLAEFHRSQLPSNFAELNNTGSAAYPAGASTAAGFLSHFVENYQQGWLHIDCSATYRKAPVEQWSAGATGLGVRTIANLLTA | 5.81 ± 0.29 h | 5.46 ± 0.11 h | 5.706 ± 0.054 h | 5.758 ± 0.022 h | 5.22 ± 0.19 h | 3.45 ± 0.34 h | 6.53 ± 0.15 h | 10.4 ± 0.37 h | 5.61 ± 0.15 h | 10.4 ± 1.1 h | 5.543 ± 0.044 h | 12.5 ± 0.4 h |
| MRRTFIKKEGVVITTLARYLLGEKCGNRLKTIDELANECRSSVGLTQAALKTLESSGAIRIERRGRNGSYLVEMDNKALLTHVDINNVVCAMPLPYTRLYEGLASGLKAQFDGIPFYYAHMRGADIRVECLLNGVYDMAVVSRLAAESYLTQKGLCLALELGPHTYVGEHQLICRKGESANVKRVGLDNRSADQKIMTDVFFGGSDVERVDLSYHESLQRIVKGDVDAVIWNVVAENELTMLGLEATPLTDDPRFLQATEAVVLTRVDDYPMQQLLRAVVDKHALLAHQQRVVSGEQEPSY | 6.2 ± 0.085 h | 5.94 ± 0.07 h | 5.34 ± 0.15 h | 5.75 ± 0.52 h | 4.78 ± 0.41 h | 2.78 ± 0.093 h | 5.3 ± 0.1 h | 7.63 ± 2.6 h | 4.68 ± 0.65 h | 9.45 ± 0.82 h | 5.166 ± 0.0084 h | 9.42 ± 0.63 h |
| MVTINNARKILQRVDTLPLYLHAYAFHLNMRLERVLPADLLDIASENNLRGVKIHVLDGERFSLGNMDDKELSAFGDKARRLNLDIHIETSASDKASIDEAVAIALKTGASSVRFYPRYEGNLRDVLSIIANDIAYVRETYQDSGLTFTIEQHEDLKSHELVSLVKESEMESLSLLFDFANMINANEHPIDALKTMAPHITQVHIKDALIVKEPGGLGHKACISGQGDMPFKALLTHLICLGDDEPQVTAYGLEEEVDYYAPAFRFEDEDDNPWIPYRQMSETPLPENHLLDARLRKEKEDAINQINHVRNVLQQIKQEANHLLNH | 4.45 ± 0.4 h | 2.09 ± 0.14 h | 2.28 ± 0.57 h | 3.21 h | 1.68 ± 0.29 h | 1.99 ± 0.052 h | 2.9 h | 4.36 ± 0.28 h | 2.77 h | 3.27 ± 0.036 h | 2.88 h | 4.74 ± 0.53 h |

From the supplement of paper PMC11246515
